Data as given in patent US20220042033A1, “COMPOSITION AND METHOD FOR CONFERRING AND/OR ENHANCING TOLERANCE AGAINST HERBICIDES BY USING VARIANTS OF PPO” (FarmHannong Co., Ltd., priority 2017, published 2022).

System: ApPPO1
Experiment: Herbicide tolerance test of ApPPO1 wild type and variants in PPO-deficient E. coli BT3(ΔPPO), growth on herbicide-containing LB agar
Format: cell-based, Auxenochlorella protothecoides
Conditions: relative to ApPPO1 WT, dark; for Herbicide tolerance, flumioxazin: up to 100 μM (FIGS. 7-12); for Herbicide tolerance, tiafenacil: up to 200 μM (FIGS. 7-12); for Herbicide tolerance, sulfentrazone: up to 400 μM (FIGS. 7-12)
Protocol: Then, the extent of tolerance was evaluated.

Molecule | Herbicide tolerance, flumioxazin | Herbicide tolerance, tiafenacil | Herbicide tolerance, sulfentrazone
V213C + Y422T: ApPPO1 (SEQ ID NO: 1) variant (protein, Synthetic (Protoporphyrinogen IX oxidase (ApPPO1) of Auxenochlorella protothecoides)) MPFTHLKPLNRLLGSPRARHPHVAPQAVSVTNTSTTRPGGRSSAPGIPGDAEYDVVIVGAGISGLTTAQALAKQYSDAVPRLLVTEARDCVGGNIITRRDGGYQWEEGPNSFQPSDAVLRAAVDAGVADRLVLGDPKAPRYVYWGGRLRATPSGPDVLTFDLLSLWGKLRAGLGAAGFKAPLPEREESVKEFVTRNLGEEVFQRLIEPFCSGCYAGDPAKLSMKAAFGKVYDLEKGGGSIVGGVLALMKARKQKPPEPRPADLPPKPKGQTVGSFDKGLVTLPSAIAEELGDRVVTGWKLESIDRSGDRFQLTYDTPQGRKKVSARSVALTVPAYTAASLLESRFPKLGKALSSIYYPPVASVALSYPETAILPERLGSDGHLAGFGQLHPRTQGVTTLGTIYASSLFPGRVPEGKVLLLSTFGGATNTRVATMPHGEIVSQVDKDLRKMLIRSDAESPHTVNVTVWPRAIPQFNVGHTDLIQEAKDDLASQGWQGLHLGGNYVAGVALGKCMEAGYKQAAELASHVKSLAT | +++++ (more than 10,000 fold higher tolerance) | +++++ (more than 10,000 fold higher tolerance) | ++++ (1,000-9,999 fold higher tolerance)
A215C + Y422I: ApPPO1 (SEQ ID NO: 1) variant (protein, Synthetic (Protoporphyrinogen IX oxidase (ApPPO1) of Auxenochlorella protothecoides)) MPFTHLKPLNRLLGSPRARHPHVAPQAVSVTNTSTTRPGGRSSAPGIPGDAEYDVVIVGAGISGLTTAQALAKQYSDAVPRLLVTEARDCVGGNIITRRDGGYQWEEGPNSFQPSDAVLRAAVDAGVADRLVLGDPKAPRYVYWGGRLRATPSGPDVLTFDLLSLWGKLRAGLGAAGFKAPLPEREESVKEFVTRNLGEEVFQRLIEPFCSGVYCGDPAKLSMKAAFGKVYDLEKGGGSIVGGVLALMKARKQKPPEPRPADLPPKPKGQTVGSFDKGLVTLPSAIAEELGDRVVTGWKLESIDRSGDRFQLTYDTPQGRKKVSARSVALTVPAYTAASLLESRFPKLGKALSSIYYPPVASVALSYPETAILPERLGSDGHLAGFGQLHPRTQGVTTLGTIYASSLFPGRVPEGKVLLLSIFGGATNTRVATMPHGEIVSQVDKDLRKMLIRSDAESPHTVNVTVWPRAIPQFNVGHTDLIQEAKDDLASQGWQGLHLGGNYVAGVALGKCMEAGYKQAAELASHVKSLAT | +++++ (more than 10,000 fold higher tolerance) | +++++ (more than 10,000 fold higher tolerance) | ++++ (1,000-9,999 fold higher tolerance)
R140A + V213C + Y422M: ApPPO1 (SEQ ID NO: 1) variant (protein, Synthetic (Protoporphyrinogen IX oxidase (ApPPO1) of Auxenochlorella protothecoides)) MPFTHLKPLNRLLGSPRARHPHVAPQAVSVTNTSTTRPGGRSSAPGIPGDAEYDVVIVGAGISGLTTAQALAKQYSDAVPRLLVTEARDCVGGNIITRRDGGYQWEEGPNSFQPSDAVLRAAVDAGVADRLVLGDPKAPAYVYWGGRLRATPSGPDVLTFDLLSLWGKLRAGLGAAGFKAPLPEREESVKEFVTRNLGEEVFQRLIEPFCSGCYAGDPAKLSMKAAFGKVYDLEKGGGSIVGGVLALMKARKQKPPEPRPADLPPKPKGQTVGSFDKGLVTLPSAIAEELGDRVVTGWKLESIDRSGDRFQLTYDTPQGRKKVSARSVALTVPAYTAASLLESRFPKLGKALSSIYYPPVASVALSYPETAILPERLGSDGHLAGFGQLHPRTQGVTTLGTIYASSLFPGRVPEGKVLLLSMFGGATNTRVATMPHGEIVSQVDKDLRKMLIRSDAESPHTVNVTVWPRAIPQFNVGHTDLIQEAKDDLASQGWQGLHLGGNYVAGVALGKCMEAGYKQAAELASHVKSLAT | +++++ (more than 10,000 fold higher tolerance) | +++++ (more than 10,000 fold higher tolerance) | ++++ (1,000-9,999 fold higher tolerance)
A215L + Y422I: ApPPO1 (SEQ ID NO: 1) variant (protein, Synthetic (Protoporphyrinogen IX oxidase (ApPPO1) of Auxenochlorella protothecoides)) MPFTHLKPLNRLLGSPRARHPHVAPQAVSVTNTSTTRPGGRSSAPGIPGDAEYDVVIVGAGISGLTTAQALAKQYSDAVPRLLVTEARDCVGGNIITRRDGGYQWEEGPNSFQPSDAVLRAAVDAGVADRLVLGDPKAPRYVYWGGRLRATPSGPDVLTFDLLSLWGKLRAGLGAAGFKAPLPEREESVKEFVTRNLGEEVFQRLIEPFCSGVYLGDPAKLSMKAAFGKVYDLEKGGGSIVGGVLALMKARKQKPPEPRPADLPPKPKGQTVGSFDKGLVTLPSAIAEELGDRVVTGWKLESIDRSGDRFQLTYDTPQGRKKVSARSVALTVPAYTAASLLESRFPKLGKALSSIYYPPVASVALSYPETAILPERLGSDGHLAGFGQLHPRTQGVTTLGTIYASSLFPGRVPEGKVLLLSIFGGATNTRVATMPHGEIVSQVDKDLRKMLIRSDAESPHTVNVTVWPRAIPQFNVGHTDLIQEAKDDLASQGWQGLHLGGNYVAGVALGKCMEAGYKQAAELASHVKSLAT | ++++ (1,000-9,999 fold higher tolerance) | ++++ (1,000-9,999 fold higher tolerance) | ++++ (1,000-9,999 fold higher tolerance)
A215L + Y422T: ApPPO1 (SEQ ID NO: 1) variant (protein, Synthetic (Protoporphyrinogen IX oxidase (ApPPO1) of Auxenochlorella protothecoides)) MPFTHLKPLNRLLGSPRARHPHVAPQAVSVTNTSTTRPGGRSSAPGIPGDAEYDVVIVGAGISGLTTAQALAKQYSDAVPRLLVTEARDCVGGNIITRRDGGYQWEEGPNSFQPSDAVLRAAVDAGVADRLVLGDPKAPRYVYWGGRLRATPSGPDVLTFDLLSLWGKLRAGLGAAGFKAPLPEREESVKEFVTRNLGEEVFQRLIEPFCSGVYLGDPAKLSMKAAFGKVYDLEKGGGSIVGGVLALMKARKQKPPEPRPADLPPKPKGQTVGSFDKGLVTLPSAIAEELGDRVVTGWKLESIDRSGDRFQLTYDTPQGRKKVSARSVALTVPAYTAASLLESRFPKLGKALSSIYYPPVASVALSYPETAILPERLGSDGHLAGFGQLHPRTQGVTTLGTIYASSLFPGRVPEGKVLLLSTFGGATNTRVATMPHGEIVSQVDKDLRKMLIRSDAESPHTVNVTVWPRAIPQFNVGHTDLIQEAKDDLASQGWQGLHLGGNYVAGVALGKCMEAGYKQAAELASHVKSLAT | + (1-9 fold higher tolerance) | + (1-9 fold higher tolerance) | ++++ (1,000-9,999 fold higher tolerance)
A215C + Y422T: ApPPO1 (SEQ ID NO: 1) variant (protein, Synthetic (Protoporphyrinogen IX oxidase (ApPPO1) of Auxenochlorella protothecoides)) MPFTHLKPLNRLLGSPRARHPHVAPQAVSVTNTSTTRPGGRSSAPGIPGDAEYDVVIVGAGISGLTTAQALAKQYSDAVPRLLVTEARDCVGGNIITRRDGGYQWEEGPNSFQPSDAVLRAAVDAGVADRLVLGDPKAPRYVYWGGRLRATPSGPDVLTFDLLSLWGKLRAGLGAAGFKAPLPEREESVKEFVTRNLGEEVFQRLIEPFCSGVYCGDPAKLSMKAAFGKVYDLEKGGGSIVGGVLALMKARKQKPPEPRPADLPPKPKGQTVGSFDKGLVTLPSAIAEELGDRVVTGWKLESIDRSGDRFQLTYDTPQGRKKVSARSVALTVPAYTAASLLESRFPKLGKALSSIYYPPVASVALSYPETAILPERLGSDGHLAGFGQLHPRTQGVTTLGTIYASSLFPGRVPEGKVLLLSTFGGATNTRVATMPHGEIVSQVDKDLRKMLIRSDAESPHTVNVTVWPRAIPQFNVGHTDLIQEAKDDLASQGWQGLHLGGNYVAGVALGKCMEAGYKQAAELASHVKSLAT | +++ (100-999 fold higher tolerance) | +++ (100-999 fold higher tolerance) | +++ (100-999 fold higher tolerance)
R140A + V213C + Y422I: ApPPO1 (SEQ ID NO: 1) variant (protein, Synthetic (Protoporphyrinogen IX oxidase (ApPPO1) of Auxenochlorella protothecoides)) MPFTHLKPLNRLLGSPRARHPHVAPQAVSVTNTSTTRPGGRSSAPGIPGDAEYDVVIVGAGISGLTTAQALAKQYSDAVPRLLVTEARDCVGGNIITRRDGGYQWEEGPNSFQPSDAVLRAAVDAGVADRLVLGDPKAPAYVYWGGRLRATPSGPDVLTFDLLSLWGKLRAGLGAAGFKAPLPEREESVKEFVTRNLGEEVFQRLIEPFCSGCYAGDPAKLSMKAAFGKVYDLEKGGGSIVGGVLALMKARKQKPPEPRPADLPPKPKGQTVGSFDKGLVTLPSAIAEELGDRVVTGWKLESIDRSGDRFQLTYDTPQGRKKVSARSVALTVPAYTAASLLESRFPKLGKALSSIYYPPVASVALSYPETAILPERLGSDGHLAGFGQLHPRTQGVTTLGTIYASSLFPGRVPEGKVLLLSIFGGATNTRVATMPHGEIVSQVDKDLRKMLIRSDAESPHTVNVTVWPRAIPQFNVGHTDLIQEAKDDLASQGWQGLHLGGNYVAGVALGKCMEAGYKQAAELASHVKSLAT | +++++ (more than 10,000 fold higher tolerance) | +++++ (more than 10,000 fold higher tolerance) | ++++ (1,000-9,999 fold higher tolerance)
